The target of the assay is Src13-GCN4-eGFP/mCherry. The assay can be described thus: PIE-FCCS.

For Src13-GCN4-eGFP/mCherry, the fc (fraction correlated), mean is 0.25 and the fc (fraction correlated), median was found to be 0.23.

The values are drawn from PMC4063175.
